US20240254255A1 (Regeneron, published 2024)

Assays:
[1] = molecular target: T1, human HER2 (ErbB2) expressed on the surface of cell lines and primary cells (human, UniProt P04626 23-1255); assay: cell-based or functional assay
[2] = molecular target: T2, hErbB2-MMH (human HER2 ectodomain with C-terminal myc-myc-hexahistidine tag) (human, UniProt P04626 23-652); assay: SPR (MASS-2), ADC captured on anti-human Fc, hErbB2-MMH in solution, 25 C
T2 construct: also called Her2 ECD; Her2 protein
Description: (§1) Equilibrium dissociation constants (KD values) for hErbB2.mmh binding to anti-HER2×HER2 antibodies conjugated with either M830 or M1 were determined using a real-time surface plasmon resonance biosensor assay on a MASS-2 instrument. The MASS-2 sensor surface was derivatized by amine coupling with a monoclonal mouse anti-human Fc antibody (REGN2567) to capture anti-HER2×HER2 ADC and parent unmodified antibodies expressed with human constant regions. […] Human hErbB2 was prepared in-house expressing a C-terminal myc-myc-hexahistidine tag (hErbB2-MMH). […] Association of hErbB2-MMH to each of the captured ADCs and monoclonal antibodies was monitored for 3 minutes. Subsequently, hErbB2-MMH dissociation was monitored for 10 minutes in HBS-EP running buffer. Anti-human Fc surface was regenerated by a brief injection of 20 mM H₃PO₄. All binding kinetic experiments were performed at 25° C.
Kinetic association (kₐ) and dissociation (Kd) rate constants were determined by fitting the real-time sensorgrams to a 1:1 binding model using Scrubber 2.0c curve fitting software. All sensorgrams were double referenced by subtracting buffer injection sensorgram signal from the corresponding analyte sensorgram, thereby removing artifacts caused by dissociation of the antibody from the capture surface. Binding dissociation equilibrium constants (KD) and dissociative half-lives (t½) were calculated from the kinetic rate constants as: […]

[3] = molecular target: T1, human HER2 (ErbB2) expressed on the …; assay: cell-based or functional assay; remark: listed apart in the source
[4] = molecular target: T2, hErbB2-MMH (human HER2 ectodomain with …); assay: SPR (MASS-2), antibody captured on anti-human Fc, hErbB2-MMH in solution, 25 C
Description: as §1
Kinetic association (kₐ) and dissociation (Kd) rate constants were determined by fitting the real-time sensorgrams to a 1:1 binding model using Scrubber 2.0c curve fitting software. […] Binding dissociation equilibrium constants (KD) and dissociative half-lives (t½) were calculated from the kinetic rate constants as: […]

| Binder | IC50 of cell killing, MDAMB231 cells (Cell Titer Glow, 6 days) [1] [nM] | IC50 of cell killing, MDAMB468 cells (Cell Titer Glow, 6 days) [1] [nM] | IC50 of cell killing, T47D cells (Cell Titer Glow, 6 days) [1] [nM] | IC50 of cell killing, primary breast (mammary epithelial) cells (Cell Titer Glow, 6 days) [1] [nM] | IC50 of cell killing, primary lung epithelial cells (Cell Titer Glow, 6 days) [1] [nM] | IC50 of cell killing, primary myocardial cells (Cell Titer Glow, 6 days) [1] [nM] | IC50 of cell killing, primary prostate epithelial cells (Cell Titer Glow, 6 days) [1] [nM] | Antigen Bound (RU) [2] [RU] | Kd [2] [nM] | koff [2] [s⁻¹] | kon [2] [M⁻¹ s⁻¹] | t1/2 [2] [min] | IC50 of cell killing, JIMT1 cells (Cell Titer Glow, 6 days) [3] [nM] | IC50 of cell killing, MDAMB361 cells (Cell Titer Glow, 6 days) [3] [nM] | IC50 of cell killing, MDAMB453 cells (Cell Titer Glow, 6 days) [3] [nM] | IC50 of cell killing, SKBR3 cells (Cell Titer Glow, 6 days) [3] [nM] | IC50 of cell killing, ZR751 cells (Cell Titer Glow, 6 days) [3] [nM] | t1/2 [4] [min] |
| --- | --- | --- | --- | --- | --- | --- | --- | --- | --- | --- | --- | --- | --- | --- | --- | --- | --- | --- |
| BsAb2-Tubulysin 1A-LP (Anti HER2 BsAb2-PEG3-N3-Tubulysin 1A-LP) (bispecific antibody, human IgG4 S228P, kappa, deglycosylated (PNGase F); Q295 carries azido-PEG3-amine clicked to Tubulysin 1A-LP, Site-specific antibody-drug conjugate of BsAb2; also called H4H17087D-Tubulysin 1A-LP) heavy 1: QVQLVESGGGVVQPGRSLRLSCEASGFTFSGYALHWVRQAPGKGLEWVTVISYDGSDKFYADSVKGRFTISRDNSKNTLYLQMNSLRTEDTALYYCAKDWGTYHWNYGHYNYVMDVWGQGTTVTVSSASTKGPSVFPLAPCSRSTSESTAALGCLVKDYFPEPVTVSWNSGALTSGVHTFPAVLQSSGLYSLSSVVTVPSSSLGTKTYTCNVDHKPSNTKVDKRVESKYGPPCPPCPAPEFLGGPSVFLFPPKPKDTLMISRTPEVTCVVVDVSQEDPEVQFNWYVDGVEVHNAKTKPREEQFNSTYRVVSVLTVLHQDWLNGKEYKCKVSNKGLPSSIEKTISKAKGQPREPQVYTLPPSQEEMTKNQVSLTCLVKGFYPSDIAVEWESNGQPENNYKTTPPVLDSDGSFFLYSRLTVDKSRWQEGNVFSCSVMHEALHNRFTQKSLSLSPGK heavy 2: not shown light: not shown | 50 | 67 | 8 | 20 | > 67 | 30 | > 67 | 72.7 | ≤ 0.0431 | ≤ 1e-05 | 232000 | ≥ 1160 | – | – | – | – | – | – |
| BsAb2-MCC-Maytansinoid A (bispecific antibody, human IgG4 S228P, kappa, SMCC-DM1 (M1) conjugate, attachment residues not stated, Antibody-drug conjugate of BsAb2; also called BsAb2 conjugated with M1 (SMCC-DM1)) heavy 1: QVQLVESGGGVVQPGRSLRLSCEASGFTFSGYALHWVRQAPGKGLEWVTVISYDGSDKFYADSVKGRFTISRDNSKNTLYLQMNSLRTEDTALYYCAKDWGTYHWNYGHYNYVMDVWGQGTTVTVSSASTKGPSVFPLAPCSRSTSESTAALGCLVKDYFPEPVTVSWNSGALTSGVHTFPAVLQSSGLYSLSSVVTVPSSSLGTKTYTCNVDHKPSNTKVDKRVESKYGPPCPPCPAPEFLGGPSVFLFPPKPKDTLMISRTPEVTCVVVDVSQEDPEVQFNWYVDGVEVHNAKTKPREEQFNSTYRVVSVLTVLHQDWLNGKEYKCKVSNKGLPSSIEKTISKAKGQPREPQVYTLPPSQEEMTKNQVSLTCLVKGFYPSDIAVEWESNGQPENNYKTTPPVLDSDGSFFLYSRLTVDKSRWQEGNVFSCSVMHEALHNRFTQKSLSLSPGK heavy 2: not shown light: not shown | – | – | – | – | – | – | – | 82.8 | 0.0469 | 1.02e-05 | 218000 | 1130 | – | – | – | – | – | – |
| BsAb2-CAMPT1 (bispecific antibody, human IgG4 S228P, kappa, Q295 carries a bis azido-alkyl substituted amine (bisSP1) clicked to CAMPT-1-LP, Antibody-drug conjugate of BsAb2; also called BsAb2-Camp1) heavy 1: QVQLVESGGGVVQPGRSLRLSCEASGFTFSGYALHWVRQAPGKGLEWVTVISYDGSDKFYADSVKGRFTISRDNSKNTLYLQMNSLRTEDTALYYCAKDWGTYHWNYGHYNYVMDVWGQGTTVTVSSASTKGPSVFPLAPCSRSTSESTAALGCLVKDYFPEPVTVSWNSGALTSGVHTFPAVLQSSGLYSLSSVVTVPSSSLGTKTYTCNVDHKPSNTKVDKRVESKYGPPCPPCPAPEFLGGPSVFLFPPKPKDTLMISRTPEVTCVVVDVSQEDPEVQFNWYVDGVEVHNAKTKPREEQFNSTYRVVSVLTVLHQDWLNGKEYKCKVSNKGLPSSIEKTISKAKGQPREPQVYTLPPSQEEMTKNQVSLTCLVKGFYPSDIAVEWESNGQPENNYKTTPPVLDSDGSFFLYSRLTVDKSRWQEGNVFSCSVMHEALHNRFTQKSLSLSPGK heavy 2: not shown light: not shown | – | – | – | – | – | – | – | 77 | ≤ 0.0388 | ≤ 1e-05 | 258000 | 1160 | – | – | – | – | – | – |
| BsAb1-MCC-Maytansinoid A (bispecific antibody, human IgG4 S228P, kappa, SMCC-DM1 (M1) conjugate, attachment residues not stated, Antibody-drug conjugate of BsAb1; also called BsAb1 conjugated with M1 (SMCC-DM1)) heavy 1: EVQLVESGGGLAQPGGSLRLSCAASGFSISDYEIHWVRQVPGKGLEWVSGIGSAGNTYYPGAVKGRFTISRENAKNSLYLQVNSLTVGDTAVYYCARVWSPLYYFGLDVWGQGTTVTVSSASTKGPSVFPLAPCSRSTSESTAALGCLVKDYFPEPVTVSWNSGALTSGVHTFPAVLQSSGLYSLSSVVTVPSSSLGTKTYTCNVDHKPSNTKVDKRVESKYGPPCPPCPAPEFLGGPSVFLFPPKPKDTLMISRTPEVTCVVVDVSQEDPEVQFNWYVDGVEVHNAKTKPREEQFNSTYRVVSVLTVLHQDWLNGKEYKCKVSNKGLPSSIEKTISKAKGQPREPQVYTLPPSQEEMTKNQVSLTCLVKGFYPSDIAVEWESNGQPENNYKTTPPVLDSDGSFFLYSRLTVDKSRWQEGNVFSCSVMHEALHNRFTQKSLSLSPGK heavy 2: not shown light: not shown | – | – | – | – | – | – | – | 93.6 | 0.512 | – | – | 32.7 | 7 | 0.05 | 0.1 | 0.02 | 6 | – |
| BsAb1-Tubulysin 1A-LP (Anti HER2 BsAb1-PEG3-N3-Tubulysin 1A-LP) (bispecific antibody, human IgG4 S228P, kappa, deglycosylated (PNGase F); Q295 carries azido-PEG3-amine clicked to Tubulysin 1A-LP, Site-specific antibody-drug conjugate of BsAb1; also called HER2xHER2-M830) heavy 1: EVQLVESGGGLAQPGGSLRLSCAASGFSISDYEIHWVRQVPGKGLEWVSGIGSAGNTYYPGAVKGRFTISRENAKNSLYLQVNSLTVGDTAVYYCARVWSPLYYFGLDVWGQGTTVTVSSASTKGPSVFPLAPCSRSTSESTAALGCLVKDYFPEPVTVSWNSGALTSGVHTFPAVLQSSGLYSLSSVVTVPSSSLGTKTYTCNVDHKPSNTKVDKRVESKYGPPCPPCPAPEFLGGPSVFLFPPKPKDTLMISRTPEVTCVVVDVSQEDPEVQFNWYVDGVEVHNAKTKPREEQFNSTYRVVSVLTVLHQDWLNGKEYKCKVSNKGLPSSIEKTISKAKGQPREPQVYTLPPSQEEMTKNQVSLTCLVKGFYPSDIAVEWESNGQPENNYKTTPPVLDSDGSFFLYSRLTVDKSRWQEGNVFSCSVMHEALHNRFTQKSLSLSPGK heavy 2: not shown light: not shown | 40 | 50 | 8 | 25 | > 67 | 9 | 30 | 114 | – | – | – | 33.5 | 0.07 | 0.003 | 0.02 | 0.004 | 0.06 | – |
| H4H17325D (BsAb1), HER2 x HER2 bispecific antibody (bispecific antibody, human IgG4 S228P, kappa, Human IgG4 bispecific with a common light chain; also called bispecific antibody 1) heavy 1: EVQLVESGGGLAQPGGSLRLSCAASGFSISDYEIHWVRQVPGKGLEWVSGIGSAGNTYYPGAVKGRFTISRENAKNSLYLQVNSLTVGDTAVYYCARVWSPLYYFGLDVWGQGTTVTVSSASTKGPSVFPLAPCSRSTSESTAALGCLVKDYFPEPVTVSWNSGALTSGVHTFPAVLQSSGLYSLSSVVTVPSSSLGTKTYTCNVDHKPSNTKVDKRVESKYGPPCPPCPAPEFLGGPSVFLFPPKPKDTLMISRTPEVTCVVVDVSQEDPEVQFNWYVDGVEVHNAKTKPREEQFNSTYRVVSVLTVLHQDWLNGKEYKCKVSNKGLPSSIEKTISKAKGQPREPQVYTLPPSQEEMTKNQVSLTCLVKGFYPSDIAVEWESNGQPENNYKTTPPVLDSDGSFFLYSRLTVDKSRWQEGNVFSCSVMHEALHNRFTQKSLSLSPGK heavy 2: not shown light: not shown | – | – | – | – | – | – | – | – | – | – | – | – | – | – | – | – | – | 29 |
| BsAb1-CAMPT1 (Anti-HER2 BsAb1-substituted alkyl amine-(N3)2-CAMPT-1-LP) (bispecific antibody, human IgG4 S228P, kappa, Q295 carries a bis azido-alkyl substituted amine (bisSP1) clicked to CAMPT-1-LP, Antibody-drug conjugate of BsAb1; also called BsAb1-Camp1) heavy 1: EVQLVESGGGLAQPGGSLRLSCAASGFSISDYEIHWVRQVPGKGLEWVSGIGSAGNTYYPGAVKGRFTISRENAKNSLYLQVNSLTVGDTAVYYCARVWSPLYYFGLDVWGQGTTVTVSSASTKGPSVFPLAPCSRSTSESTAALGCLVKDYFPEPVTVSWNSGALTSGVHTFPAVLQSSGLYSLSSVVTVPSSSLGTKTYTCNVDHKPSNTKVDKRVESKYGPPCPPCPAPEFLGGPSVFLFPPKPKDTLMISRTPEVTCVVVDVSQEDPEVQFNWYVDGVEVHNAKTKPREEQFNSTYRVVSVLTVLHQDWLNGKEYKCKVSNKGLPSSIEKTISKAKGQPREPQVYTLPPSQEEMTKNQVSLTCLVKGFYPSDIAVEWESNGQPENNYKTTPPVLDSDGSFFLYSRLTVDKSRWQEGNVFSCSVMHEALHNRFTQKSLSLSPGK heavy 2: not shown light: not shown | – | – | – | – | – | – | – | 117 | 0.472 | – | – | 41 | – | – | – | – | – | – |
